From PMC6265484, “Homodimerization regulates an endothelial specific signature of the SOX18 transcription factor” (Nucleic Acids Research, 2018)

Key:
Experiment in all cases: single-molecule two-colour coincidence fluorescence spectroscopy; GFP- and Cherry-tagged proteins made in LTE, diluted to about 100 pM, confocal detection with 488 and 561 nm lasers, room temperature; coincidence ratio C = mCherry/(GFP + mCherry)
human MEF2C = human MEF2C (human, UniProt Q06413 1-473); settings: partners not purified
Chain of human MEF2C (Q06413 whole entry): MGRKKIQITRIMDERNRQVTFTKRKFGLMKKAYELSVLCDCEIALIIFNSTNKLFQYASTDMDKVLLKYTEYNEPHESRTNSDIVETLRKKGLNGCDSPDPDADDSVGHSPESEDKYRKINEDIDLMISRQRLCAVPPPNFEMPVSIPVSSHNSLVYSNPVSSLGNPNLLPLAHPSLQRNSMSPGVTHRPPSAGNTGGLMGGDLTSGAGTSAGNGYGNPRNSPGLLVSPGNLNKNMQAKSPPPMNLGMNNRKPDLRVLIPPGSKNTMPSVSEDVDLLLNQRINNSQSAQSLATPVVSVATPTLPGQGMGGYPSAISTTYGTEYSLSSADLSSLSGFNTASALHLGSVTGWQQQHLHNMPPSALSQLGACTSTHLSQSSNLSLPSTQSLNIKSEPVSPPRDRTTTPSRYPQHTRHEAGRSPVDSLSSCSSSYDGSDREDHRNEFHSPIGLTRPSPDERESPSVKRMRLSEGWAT

human RBPJ = human RBPJ (human, UniProt Q06330 1-500); settings: partners not purified
Chain of human RBPJ (Q06330 whole entry): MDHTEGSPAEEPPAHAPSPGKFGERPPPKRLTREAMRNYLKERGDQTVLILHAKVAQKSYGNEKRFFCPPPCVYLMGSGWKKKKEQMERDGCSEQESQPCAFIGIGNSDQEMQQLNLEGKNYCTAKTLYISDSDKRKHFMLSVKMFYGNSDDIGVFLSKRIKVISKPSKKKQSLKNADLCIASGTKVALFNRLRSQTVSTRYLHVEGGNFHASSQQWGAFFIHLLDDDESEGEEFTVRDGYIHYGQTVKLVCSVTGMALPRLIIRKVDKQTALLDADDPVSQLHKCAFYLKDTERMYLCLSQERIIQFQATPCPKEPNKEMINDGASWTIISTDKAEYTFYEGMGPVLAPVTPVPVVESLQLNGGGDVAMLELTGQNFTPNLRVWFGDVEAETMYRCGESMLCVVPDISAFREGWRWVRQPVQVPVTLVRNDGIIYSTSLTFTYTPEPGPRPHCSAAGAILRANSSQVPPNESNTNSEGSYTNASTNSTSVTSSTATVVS

RXRA = biological target: T1, RXRA (UniProt P19793 1-462); settings: partners not purified
T1 sequence (looked up): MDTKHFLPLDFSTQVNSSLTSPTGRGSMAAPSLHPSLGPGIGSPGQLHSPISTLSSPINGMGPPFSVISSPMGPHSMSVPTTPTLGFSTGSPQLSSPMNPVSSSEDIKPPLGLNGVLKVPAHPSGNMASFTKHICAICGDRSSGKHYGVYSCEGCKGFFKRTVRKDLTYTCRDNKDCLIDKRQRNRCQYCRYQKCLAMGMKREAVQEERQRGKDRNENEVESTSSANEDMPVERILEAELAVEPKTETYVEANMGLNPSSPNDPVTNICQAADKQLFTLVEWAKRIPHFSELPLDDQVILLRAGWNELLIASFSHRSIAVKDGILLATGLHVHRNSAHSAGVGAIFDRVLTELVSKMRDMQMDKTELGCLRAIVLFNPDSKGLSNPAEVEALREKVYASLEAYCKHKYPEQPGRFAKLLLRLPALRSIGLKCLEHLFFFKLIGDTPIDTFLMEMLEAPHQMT

[1] = biological target: the molecule itself

B1: full-length human SOX18 (natural protein, UniProt P35713 1-384, looked up)
chain: MQRSPPGYGAQDDPPARRDCAWAPGHGAAADTRGLAAGPAALAAPAAPASPPSPQRSPPRSPEPGRYGLSPAGRGERQAADESRIRRPMNAFMVWAKDERKRLAQQNPDLHNAVLSKMLGKAWKELNAAEKRPFVEEAERLRVQHLRDHPNYKYRPRRKKQARKARRLEPGLLLPGLAPPQPPPEPFPAASGSARAFRELPPLGAEFDGLGLPTPERSPLDGLEPGEAAFFPPPAAPEDCALRPFRAPYAPTELSRDPGGCYGAPLAEALRTAPPAAPLAGLYYGTLGTPGPYPGPLSPPPEAPPLESAEPLGPAADLWADVDLTEFDQYLNCSRTRPDAPGLPYHVALAKLGPRAMSCPEESSLISALSDASSAVYYSACISG
For B1, the “stoichiometry N” value (human MEF2C) was 2, the “stoichiometry N” value (human RBPJ) was 2 and the “stoichiometry N” value (RXRA) was 1. The “stoichiometry N” value [1] was 2.
